Here are results for 21 molecules from patent publication US20220195049A1 (Scripps Research, published 2022).

For the assay, the target named is T1, PD-L1-Fc (PD-L1 antigen protein, extracellular region Met1-Thr239 fused to human Fc) (human, UniProt Q9NZQ7 19-239).
T1 construct: range 1-239; the secreted protein lacks it; also called PD-L1-Fc antigen; pCEP4-PDL1-Fc product; not shown: human Fc fragment of the pCEP4-Fc vector
Nature of the assay: BLI (Octet); PD-1-coated biosensor dipped in a mix of PD-L1 antigen protein and antibody; KD from the Octet software.

T1 sequence (Q9NZQ7 19-239): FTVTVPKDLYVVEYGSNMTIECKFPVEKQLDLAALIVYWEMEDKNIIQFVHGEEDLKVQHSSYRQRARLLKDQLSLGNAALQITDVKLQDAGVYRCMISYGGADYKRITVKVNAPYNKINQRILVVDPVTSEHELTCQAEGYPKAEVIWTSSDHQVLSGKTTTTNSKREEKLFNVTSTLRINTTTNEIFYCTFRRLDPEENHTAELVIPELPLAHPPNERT

B1: KL001-16 (antibody, V domains shown)
VH: QVQLVESGAEVKKPGSSVKVSCKASGGTFSSYAISWVRQAPGQGLEWMGRIIPILGIANYAQKFQGRVTVTADKSTSTAYMELSSLRSEDTAVYYCARSGYGYAYGSFDYWGQGTLVTVSS
VL: QLVLTQPPSVSGAPGQTVTISCTGPTIGAGYDVHWYQQLPGAAPKLLIYGNLNRPSGVPDRFSGSKSGTSASLAITDLQAEDEADYYCQSYDSRLGVVFGGGTKLTVL
As for B1, the Kd was determined as 0.00908 nM. In other words, the picomolar range.

B2: KL001-22 (antibody, V domains shown)
VH: QVQLVESGAEVKKPGSSVKVSCKASGGTFSSYAISWVRQAPGQGLEWMGRISPILGIANYAQKFQGRVTVTADKSTSTAYMELSSLRSEDTAVYYCARSGYGYAYGSFDYWGQGTLVTVSS
VL: QLVLTQPPSVSGAPGQTVTISCTGPTIGAGYDVHWYQQLPGAAPKLLIYGNLNRPSGVPDRFSGSKSGTSASLAITDLQAEDEADYYCQSYDSTLGVVFGGGTKLTVL
Consider B2, for which the Kd is 0.049 nM.

B3: KL001-23 (antibody, V domains shown)
VH: QVQLVESGAEVKKPGSSVKVSCKASGGTFSSYAISWVRQAPGQGLEWMGRIIPILGIANYAQKFQGRVTVTADKSTSTAYMELSSLRSEDTAVYYCARSGYGYAYGVFDHWGQGTLVTVSS
VL: QLVLTQPPSVSGAPGQTVTISCTGPTIGAGYDVHWYQQLPGAAPKLLIYGNLNRPSGVPDRFSGSKSGTSASLAITDLQAEDEADYYCQSYDSRLGVVFGGGTKLTVL
For the molecule B3, binding was put at a Kd of 0.0267 nM.

B4: KL001-17 (antibody, V domains shown)
VH: QVQLVESGAEVKKPGSSVKVSCKASGGTFSSYAISWVRQAPGQGLEWMGRIIPILGIANYAQKFQGRVTVTADKSTSTAYMELSSLRSEDTAVYYCARSGYGYAYGSFDYWGQGTLVTVSS
VL: QLVLTQPPSVSGAPGQTVTISCTGPVIGAGYDVHWYQQLPGAAPKLLIYGNLNRPSGVPDRFSGSKSGTSASLAITDLQAEDEADYYCQSYDSRLGVVFGGGTKLTVL
B4 returned a Kd of 0.0183 nM.

B5: KL001-04 (antibody, V domains shown)
VH: QVQLVESGAEVKKPGSSVKVSCKASGGTFSSYAISWVRQAPGQGLEWMGRIIPILGIANYAQKFQGRVTVTADKSTSTAYMELSSLRSEDTAVYYCARSGYGYAYGSFAAWGQGTLVTVSS
VL: QLVLTQPPSVSGAPGQTVTISCTGPTIGAGYDVHWYQQLPGAAPKLLIYGNLNRPSGVPDRFSGSKSGTSASLAITDLQAEDEADYYCQSYDSTLGVVFGGGTKLTVL
With B5, the Kd was determined as 0.0136 nM.

B6: KL001-15 (antibody, V domains shown)
VH: QVQLVESGAEVKKPGSSVKVSCKASGGTFSSYAISWVRQAPGQGLEWMGRIIPILGIANYAQKFQGRVTVTADKSTSTAYMELSSLRSEDTAVYYCARSGYGYAYGSFDYWGQGTLVTVSS
VL: QLVLTQPPSVSGAPGQTVTISCTGPTIQAGYDVHWYQQLPGAAPKLLIYGNLNRPSGVPDRFSGSKSGTSASLAITDLQAEDEADYYCQSYDSRLGVVFGGGTKLTVL
Consider B6, for which binding was put at a Kd of 0.0058 nM.

B7: KL001-19 (antibody, V domains shown)
VH: QVQLVESGAEVKKPGSSVKVSCKASGGTFSSYAISWVRQAPGQGLEWMGRIIPILGIANYAQKFQGRVTVTADKSTSTAYMELSSLRSEDTAVYYCARSGYGYAYGSFDYWGQGTLVTVSS
VL: QLVLTQPPSVSGAPGQTVTISCTGPTIGAGYDVHWYQQLPGAAPKLLIYGNLNRPSGVPDRFSGSKSGTSASLAITDLQAEDEADYYCQSYDSTVGVVFGGGTKLTVL
Molecule B7 showed a Kd of 0.00655 nM.

B8: KL001-14 (antibody, V domains shown)
VH: QVQLVESGAEVKKPGSSVKVSCKASGGTFSSYAISWVRQAPGQGLEWMGRIIPILGIANYAQKFQGRVTVTADKSTSTAYMELSSLRSEDTAVYYCARSGYGYAYQSFDYWGQGTLVTVSS
VL: QLVLTQPPSVSGAPGQTVTISCTGPQIGAGYDVHWYQQLPGAAPKLLIYGNLNRPSGVPDRFSGSKSGTSASLAITDLQAEDEADYYCQSYDSRLGVVFGGGTKLTVL
B8 returned a Kd of 0.0204 nM.

B9: KL001-12 (antibody, V domains shown)
VH: QVQLVESGAEVKKPGSSVKVSCKASGGTFSSYAISWVRQAPGQGLEWMGRIIPILGIANYAQKFQGRVTVTADKSTSTAYMELSSLRSEDTAVYYCARSGYGYAYGSFDYWGQGTLVTVSS
VL: QLVLTQPPSVSGAPGQTVTISCTGPTIGAGYDVHWYQQLPGAAPKLLIYGNLNRPSGVPDRFSGSKSGTSASLAITDLQAEDEADYYCQSYDSALGVVFGGGTKLTVL
B9: the Kd was 0.015 nM.

B10: KL001-21 (antibody, V domains shown)
VH: QVQLVESGAEVKKPGSSVKVSCKASGGTFSSYAISWVRQAPGQGLEWMGRIIPVLGIANYAQKFQGRVTVTADKSTSTAYMELSSLRSEDTAVYYCARSGYGYAYGSFDYWGQGTLVTVSS
VL: QLVLTQPPSVSGAPGQTVTISCTGPTIGAGYDVHWYQQLPGAAPKLLIYGNLNRPSGVPDRFSGSKSGTSASLAITDLQAEDEADYYCQAYDSTLGVVFGGGTKLTVL
As for B10, binding was put at a Kd of 0.0283 nM.

B11: KL001-26 (antibody, V domains shown)
VH: QVQLVESGAEVKKPGSSVKVSCKASGGTFSSYAISWVRQAPGQGLEWMGRIIPILGIANYAQKFQGRVTVTADKSTSTAYMELSSLRSEDTAVYYCARSGYGYAYGSFDYWGQGTLVTVSS
VL: QLVLTQPPSVSGAPGQTVTISCTGPTIGQGYDVHWYQQLPGAAPKLLIYGNLNRPSGVPDRFSGSKSGTSASLAITDLQAEDEADYYCQSYDSRLGVVFGGGTKLTVL
Turning to B11, binding was put at a Kd of 0.0572 nM.

B12: KL001-20 (antibody, V domains shown)
VH: QVQLVESGAEVKKPGSSVKVSCKASGGTFSSYAISWVRQAPGQGLEWMGRIIPIMGIANYAQKFQGRVTVTADKSTSTAYMELSSLRSEDTAVYYCARSGYGYAYGSFDYWGQGTLVTVSS
VL: QLVLTQPPSVSGAPGQTVTISCTGPTIGAGYDVHWYQQLPGAAPKLLIYGNLNRPSGVPDRFSGSKSGTSASLAITDLQAEDEADYYCQSYDSTLGVVFGGGTKLTVL
Consider B12, for which the Kd worked out at 0.0213 nM.

B13: KL001-10 (antibody, V domains shown)
VH: QVQLVESGAEVKKPGSSVKVSCKASGGTFSSYAISWVRQAPGQGLEWMGRIIPILGIANYAQKFQGRVTVTADKSTSTAYMELSSLRSEDTAVYYCARSGYGYAYGSFDYWGQGTLVTVSS
VL: QLVLTQPPSVSGAPGQTVTISCTGPTIGAGYDVHWYQQLPGAAPKLLIYGNLNRPSGVPDRFSGSKSGTSASLAITDLQAEDEADYYCQSYDQTLGVVFGGGTKLTVL
In turn, B13 gave a Kd of 0.0201 nM. The Kd values of the last two molecules are within 1.5-fold of each other.

B14: KL001-27 (antibody, V domains shown)
VH: QVQLVESGAEVKKPGSSVKVSCKASGGTFSSYAISWVRQAPGQGLEWMGRIIPILGIANYAQKFQGRVTVTADKSTSTAYMELSSLRSEDTAVYYCARSGYGYAYGSFDYWGQGTLVTVSS
VL: QLVLTQPPSVSGAPGQTVTISCTGQTIGAGYDVHWYQQLPGAAPKLLIYGNLNRPSGVPDRFSGSKSGTSASLAITDLQAEDEADYYCQSYDSTDGVVFGGGTKLTVL
For B14, the Kd is 0.0612 nM.

B15: KL001-24 (antibody, V domains shown)
VH: QVQLVESGAEVKKPGSSVKVSCKASGGTFSSYAISWVRQAPGQGLEWMGRIIPILGQANYAQKFQGRVTVTADKSTSTAYMELSSLRSEDTAVYYCARSGYGYAYGSFDYWGQGTLVTVSS
VL: QLVLTQPPSVSGAPGQTVTISCTGPTIGAGFDVHWYQQLPGAAPKLLIYGNLNRPSGVPDRFSGSKSGTSASLAITDLQAEDEADYYCQSYDSRLGVVFGGGTKLTVL
Turning to B15, the dissociation constant (Kd) is 0.0408 nM.

B16: KL001-02 (antibody, V domains shown)
VH: QVQLVESGAEVKKPGSSVKVSCKASGGTFSSYAISWVRQAPGQGLEWMGRIIPILGIANYAQKFQGRVTVTADKSTSTAYMELSSLRSEDTAVYYCARSGHGYAYGSFDYWGQGTLVTVSS
VL: QLVLTQPPSVSGAPGQTVTISCTGPTIGQGYDVHWYQQLPGAAPKLLIYGNLNRPSGVPDRFSGSKSGTSASLAITDLQAEDEADYYCQSYDSRLGVVFGGGTKLTVL
On to B16, for which binding was put at a Kd of 0.0216 nM.

B17: KL001-09 (antibody, V domains shown)
VH: QVQLVESGAEVKKPGSSVKVSCKASGGTFSSYAISWVRQAPGQGLEWMGRIIPILQIANYAQKFQGRVTVTADKSTSTAYMELSSLRSEDTAVYYCARSGYGYAYGSFDYWGQGTLVTVSS
VL: QLVLTQPPSVSGAPGQTVTISCTGPPIGAGYDVHWYQQLPGAAPKLLIYGNLNRPSGVPDRFSGSKSGTSASLAITDLQAEDEADYYCQSYDSTPGVVFGGGTKLTVL
With B17, the Kd turned out to be 0.0216 nM.

B18: KL001-07 (antibody, V domains shown)
VH: QVQLVESGAEVKKPGSSVKVSCKASGGTFSSYAISWVRQAPGQGLEWMGRQIPILGIANYAQKFQGRVTVTADKSTSTAYMELSSLRSEDTAVYYCARSGYGYAYGSFDYWGQGTLVTVSS
VL: QLVLTQPPSVSGAPGQTVTISCTGPTIGAGYDVHWYQQLPGAAPKLLIYGNLNRPSGVPDRFSGSKSGTSASLAITDLQAEDEADYYCQSYDSRLGVVFGGGTKLTVL
B18 came in with a Kd of 0.0137 nM.

B19: KL001-06 (antibody, V domains shown)
VH: QVQLVESGAEVKKPGSSVKVSCKASGGTFSSYAISWVRQAPGQGLEWMGRIIPILGIANYAQKFQGRVTVTADKSTSTAYMELSSLRSEDTAVYYCARSGYGYAYGSFDVWGQGTLVTVSS
VL: QLVLTQPPSVSGAPGQTVTISCTGPTIGAGYDVHWYQQLPGAAPKLLIYGNLNRPSGVPDRFSGSKSGTSASLAITDLQAEDEADYYCQSYDSRLGVVFGGGTKLTVL
The molecule B19 returned a Kd of 0.0169 nM.

B20: KL001-18 (antibody, V domains shown)
VH: QVQLVESGAEVKKPGSSVKVSCKASGGTFSSYAISWVRQAPGQGLEWMGRIIPILGIANYAQKFQGRVTVTADKSTSTAYMELSSLRSEDTAVYYCARSGYGYAYGSFDYWGQGTLVTVSS
VL: QLVLTQPPSVSGAPGQTVTISCTGQTIGAGYDVHWYQQLPGAAPKLLIYGNLNRPSGVPDRFSGSKSGTSASLAITDLQAEDEADYYCQSYDSTEGVVFGGGTKLTVL
The molecule B20 came in with a Kd of 0.0161 nM.

B21: KL001-11 (antibody, V domains shown)
VH: QVQLVESGAEVKKPGSSVKVSCKASGGTFSSYAISWVRQAPGQGLEWMGRIIPILGIANYAQKFQGRVTVTADKSTSTAYMELSSLRSEDTAVYYCARSGYGYAYGSFDYWGQGTLVTVSS
VL: QLVLTQPPSVSGAPGQTVTISCTGPTIGAGYDVHWYQQLPGAAPKLLIYGNLNRPSGVPDRFSGSKSGTSASLAITDLQAEDEADYYCQSYDRTLGVVFGGGTKLTVL
As to B21, binding was characterised by a dissociation constant (Kd) of 0.0163 nM.
